US20200255860, “A STRONG INSULATOR AND USES […] IN GENE DELIVERY” (CHILDREN'S HOSPITAL MEDICAL CENTER, published 2020)
Changes are numbered by the printed parent chain.

How the values were obtained:
Details in all cases: tags: full-length, Abnova; label: IRDye700 5' both strands
CTCF [1] = target: T1, CTCF (Homo sapiens, UniProt P49711 P49711:1-727); test: EMSA; no LV probe bound
T1 sequence: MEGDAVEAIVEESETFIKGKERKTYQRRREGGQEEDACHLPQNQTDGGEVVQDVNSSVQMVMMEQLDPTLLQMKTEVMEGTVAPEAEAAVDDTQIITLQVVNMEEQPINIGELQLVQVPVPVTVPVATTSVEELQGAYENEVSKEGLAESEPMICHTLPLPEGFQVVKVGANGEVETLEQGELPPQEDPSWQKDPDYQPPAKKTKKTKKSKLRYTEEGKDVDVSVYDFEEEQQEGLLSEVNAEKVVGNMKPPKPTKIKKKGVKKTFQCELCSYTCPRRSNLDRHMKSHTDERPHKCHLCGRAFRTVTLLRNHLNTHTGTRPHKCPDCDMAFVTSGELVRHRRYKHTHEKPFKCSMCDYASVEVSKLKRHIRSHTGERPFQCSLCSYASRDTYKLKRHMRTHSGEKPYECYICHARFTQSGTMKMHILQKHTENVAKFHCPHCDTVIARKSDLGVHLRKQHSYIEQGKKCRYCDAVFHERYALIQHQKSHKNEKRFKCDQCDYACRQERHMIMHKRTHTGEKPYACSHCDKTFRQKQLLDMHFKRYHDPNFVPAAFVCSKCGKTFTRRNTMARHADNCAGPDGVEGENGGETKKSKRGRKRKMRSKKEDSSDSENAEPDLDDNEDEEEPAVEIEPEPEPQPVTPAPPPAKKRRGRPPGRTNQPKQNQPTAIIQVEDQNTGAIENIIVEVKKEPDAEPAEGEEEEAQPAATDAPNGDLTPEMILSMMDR

CTCF [2] = target: T1, CTCF; test: EMSA; 20 mM HEPES pH 7.5, 50 mM KCl, 5 mM MgCl2, 3.3 uM ZnSO4, poly(dI:dC), room temp; competed by unlabeled H19
CTCF [3] = target: T1, CTCF; test: EMSA; region 4 mutated, no effect

B1: LV1 probe (dsDNA)
DNA 1: ACAAGATAGAGGAAGAGCAAAACAAAAGTAAGACCACCGCACAGCAAGCGGCCGCTGATCTTCAGACCTGGAGGAGGAGATATGAGGGA
DNA 2: TCCCTCATATCTCCTCCTCCAGGTCTGAAGATCAGCGGCCGCTTGCTGTGCGGTGGTCTTACTTTTGTTTTGCTCTTCCTCTATCTTGT
B1: no binding (CTCF [1]).

B2: LV2 probe (dsDNA)
DNA 1: GATACCTAAAGGATCAACAGCTCCTGGGGATTTGGGGTTGCTCTGGAAAACTCATTTGCACCACTGCTGTGCCTTGGAATGCT
DNA 2: AGCATTCCAAGGCACAGCAGTGGTGCAAATGAGTTTTCCAGAGCAACCCCAAATCCCCAGGAGCTGTTGATCCTTTAGGTATC
B2: no binding (CTCF [1]).

B3: FV2 probe (dsDNA)
DNA 1: AGTAAAAGGATTTGTATATTAGCCTTGCTAAGGGAGACATCTAGTGATATAAGTGTGAACTACACTTATCTTAAATGATG
DNA 2: CATCATTTAAGATAAGTGTAGTTCACACTTATATCACTAGATGTCTCCCTTAGCAAGGCTAATATACAAATCCTTTTACT
B3: binds (CTCF [2]).

B4: FV2 mutant 4 (dsDNA)
DNA 1: B3 DNA 1 with T19G, T20G, A21C, G22T, C23T, C24T, T25A, G27A, C28T, T29C
DNA 2: B3 DNA 2 with A52G, G53A, C54T, A56T, G57A, G58A, C59A, T60G, A61C, A62C
B4: binds (CTCF [3]).

B5: LV3 probe (dsDNA)
DNA 1: GTCGGGGAAGCTGACGTCCTTTCGAATTCGATATCAAGCTGTACCTTTAAGACCAATGACTTACAAGGCAGCTGTAGATC
DNA 2: GATCTACAGCTGCCTTGTAAGTCATTGGTCTTAAAGGTACAGCTTGATATCGAATTCGAAAGGACGTCAGCTTCCCCGAC
B5: no binding (CTCF [1]).
